From patent US20040073001A1 (Kyowa Kirin, published 2004)

Columns and labels:
[1] = target: T1, GAL4 BD fusion of almost the entire β-catenin arm (residues 141 to 664 of mouse β-catenin) (yeast; mouse, UniProt P04386 1-147; Q02248 141-664); assay: yeast two-hybrid, β-galactosidase activity
T1 construct: Two-hybrid bait; also called almost entire region
Description: (§1) The respective bait plasmids were cotransfected with the B9L cDNA fragment-expressing clone obtained by the two-hybrid system in Example 1 into yeast HF7C strain, and the binding between the B9L protein and the respective β-catenin partial fragments were examined by the existence of β-galactosidase activity in the transformants. […] Thus, it was considered that the B9L protein binds to the N-terminal region of β-catenin arm (armadillo repeats 1-6).
(§2) In order to further examine which region of the B9L protein binds to the β-catenin arm, two-hybrid system was performed as follows. […] Each plasmid was cotransfected with the β-catenin arm bait plasmid prepared in Example 1 into yeast HF7C strain, and the binding of each B9L protein partial fragment and β-catenin arm was examined based on the presence or absence of β-galactosidase activity in the transformants. […] Thus, the B9L protein was indicated to bind to the β-catenin arm at the region of residues 292-439 in the amino acid sequence represented by SEQ ID NO: 2.

[2] = target: T2, GAL4 BD fusion of the N-terminal half of the β-catenin arm (residues 141 to 390 of mouse β-catenin, armadillo … (yeast; mouse, UniProt P04386 1-147; Q02248 141-390); assay: yeast two-hybrid, β-galactosidase activity
T2 construct: Two-hybrid bait; also called N-terminal half (armadillo repeats 1-6) of the β-catenin arm
Description: as §1, §2

[3] = target: T3, GAL4 BD fusion of the C-terminal half of the β-catenin arm (residues 391 to 664 of mouse β-catenin, armadillo … (yeast; mouse, UniProt P04386 1-147; Q02248 391-664); assay: yeast two-hybrid, β-galactosidase activity
T3 construct: Two-hybrid bait; also called C-terminal half of the β-catenin arm (armadillo repeats 7-12)
Description: as §1, §2

[4] = target: T4, GAL4-β-catenin fusion protein (GAL4 BD fused with mouse β-catenin armadillo domain, residues 128 to 683) (yeast; mouse, UniProt P04386 1-147; Q02248 128-683); assay: yeast two-hybrid screening, HIS3 and β-galactosidase reporters
T4 construct: Bait of the yeast two-hybrid system; also called mβ-catenin arm; β-catenin arm bait plasmid
Procedure: Screening was carried out with […] mouse fetal (Swiss Webster/NIH mouse; 17-day embryo) cDNA library, which is a library to be used for the two-hybrid system and provided by Clontech. This cDNA library contains vector pGAD10 (Clontech) with cDNA insert and, as a selection marker, LEU2 gene involved in leucine biosynthesis in yeast, and can express fusion proteins of GAL4 AD and cDNA-encoding proteins through ADH1 promoter. Specific method for the screening was conducted according to the manual attached to the library from Clontech as follows.
Specifically, both mouse fetal cDNA library for the two-hybrid system and plasmid GAL4-β-catenin prepared in (1) were introduced in yeast Saccharomyces cerevisiae HF7C strain (Clontech). HF7C strain is a yeast strain that is tryptophan-, leucine-, and histidine-auxotrophic. The strain has HIS3 gene on the chromosome wherein the gene is involved in histidine biosynthesis and has been ligated downstream of GAL1 promoter to which GAL4 BD can bind, as well as E. coli-derived β-galactosidase gene lacZ ligated downstream of a nucleotide sequence to which GAL4 BD can bind as reporter genes (Gene 212: 197 (1998)). A transformant containing both plasmid GAL4-β-catenin and cDNA clone of a protein that binds to mβ-catenin arm and expresses the respective fusion proteins, is non-auxotrophic for histidine and is positive in β-galactosidase activity. […]

B1: GAL4 AD fusion of the B9L cDNA fragment clone obtained by the two-hybrid system (B9L protein residues 245 to 564, SEQ ID NO: 4) (other, not shown: large carriers)
chain: LANTAAEAVLQGRAESILAYHQQNVPRAKLDQAPKVPPTPEPLPLNTPSAGTPQSQPPPLPPPPPAPGSAPPALPPEGPPEDTSQDLAPNSVGAASTGGGTGGTHPNTPTAATANNPLPPGGDPGSAPGSALLGEATPTGNGQRNLVGSEGLSKEQLEHRERSLQTLRDIERLLLRSGETEPFLKGPPGGAGEGGPPAQAPSAAQPPPSAPPGGLKKYEEPLQSMISQTQSLGGPPLEHEVPGHPQGGDMGQQMNMMMQRLGQDSLTPEQVAWRKLQEEYYEEKRRKEEQIGLHGGRPLQDMVGMGGMMGRGPPPPYHSK
notes: Expressed in yeast HF7C as prey of the two-hybrid system; also called B9L cDNA fragment-expressing clone; bc19 like protein fragment
**Q.** What does the source list for B1?
**A.** binding result [1]: binds; binding result [2]: binds; binding result [3]: no binding; binding result [4]: binds
